Assay results taken from patent US20240165282A1, “CONFORMATIONAL CONSTRAINED SOMATOSTATIN RECEPTOR 3 PEPTIDE LIGANDS AND THEIR CONJUGATES AND USES THEREOF” (STARGET PHARMA LTD., priority 2021, published 2024).
Values joined by “and” are separate entries in the source; they are usually repeats but may differ in a detail not shown here. Equal entries are not always repeated. *1 amine or outer side, *2 acyl side, *3 side chain or, on linkers, in order; H or OH if unused. Where a SMILES comes first, the peptide text is derived from it. Bridges are numbered along the chain shown (N, C = ends). [ ]: non-standard residue; d: D form. The star is where a group is joined. DOTA = O=C(O)CN1CCN(CC(=O)O)CCN(CC(=O)*)CCN(CC(=O)O)CC1; N(2-mercaptoethyl)Gly = O=C(CN(CCS[*:3])[*:1])[*:2]; GABA = NCCCC(=O)O

Experiments:
in vivo = conditions: iv, total radioactivity
Description: (§1) In this example, imaging performance, biodistribution and tumor uptake of SSTR3 selective radioligands in rodents bearing xenografts of transfected SSTR3 cells was determined using the following method: Animal handling was conducted in accordance with the European Council Directive 2010/63/UE. All experimental procedures were approved by the Institutional Ethical Committee and local authorities. For biodistribution studies, female nude nu/nu Balb/c mice or nude nu/nu rats (Charles River) were used. Dynamic PET-CT imaging experiments were performed up to 240 minutes in mice and up to 270 minutes in rats, under isoflurane anesthesia following the intravenous injection of the radiolabeled tracers. All experiments were performed during the light phase of the light—dark cycle. Biodistribution was determined by quantitative analysis of the PET-CT scan and calculated as % percentage of […] of the total injected dose (%ID/g) or by the value of SUV which is the ratio of the image-derived radioactivity concentration Cimg and the whole-body concentration of the injected radioactivity Cinj.

[1] = system: Xenograft of SSTR3 transfected HEK-293 cells; assay: in vivo; conditions: rat
Description: as §1

[2] = system: Desmoplastic Small Round Cell Tumor with SSTR3 expression; type: in vivo, human
Description: In this example, the safety, biodistribution, imaging performance and tumor uptake in patient with sarcoma type DSRCT tumor positive SSTR3 expression was evaluated. Following radiolabeling of the title compound, the eluted solution of the radiolabel tracer was filtered for sterility and injected intravenously in isotonic solution. PET-CT scan was performed at 30- and 120-minutes post injection of the radiolabeled tracer at approximately 600 Mbq. Body temperature, heart rate, and blood pressure were monitored before during and after the PET-CT scan for safety evaluation. The patient was a person, diagnosed for DSRCT 8 years prior. Over the last 8 years, before the current example, the patient was treated with External beam radiation therapy (EBRT), chemotherapy (Irinotecan/temozolomide, melphalan/treosuflan, gemcitabine/docetaxel, pazopanib, topotecan/cyclophosphamide, cabozantinib, densumab), and laminectomy (to resect spine—tumoral foci). A biopsy analysis was performed 3 months before the PET-CT and indicated high mRNA expression of SSTR3.

insulin release = assay: Glucose induced insulin release in rats; type: in vivo, Wistar rats; conditions: S.C. 100-1000 microgram/kg, glucose stimulation
Description: In vivo determination of the pharmacodynamic properties of SSTR3 analogs was carried out in rats, according to known procedures (Afargan M. et al., 2001, Pless J. et al 1986).
Adult male Wistar rats weighing 200-220 g, were maintained on a constant light-dark cycle (light from 8:00 to 20:00 h), temperature (21±3° C.), and relative humidity (55±10%). Laboratory chow and tap water were available ad libitum. All animals in the study were fasted overnight, animals were placed in cages with metal mesh to prevent coprophagia with free access to water. On the day of the experiment, rats were anesthetized with Nembutal (IP, 60 mg/kg). Ten minutes after anesthesia, drugs were administrated S.C. at 100-1000 microgram/kg dose. At 10 minutes after drugs administration the stimulation of GH and glucagon release were carried out by i.v. bolus administration of 0.5 g/kg L-arginine, stimulation of insulin release was carried out in separate animal groups that received i.v. bolus of 0.5 g/kg of glucose. Terminal blood samples in EDTA were collected at 5 minutes after stimulation. Blood samples were and centrifuged immediately. Plasma was separated and kept frozen at −20° C. until assayed.
Rat growth hormone (rGH), glucagon and insulin levels were determined by commercial ELISA kits using the Millipore ELISA kits (Billerica, MA, USA). The ELISA kit for rat plasma GH, Millipore, Cat. No. EZRMGH-45K was performed according to the validated detection method of colorimetric sandwich ELISA protocol (Supriya S. et al., 2013). The ELISA kit for rat plasma insulin, Millipore Cat. No. MMEZRMI13K (Merck) was performed according to the validated detection method of fluorescent colorimetric protocol (Xu, P.Z. et al., 2012). The ELISA kit for rat plasma glucagon, Millipore, Cat. No. EZGLU-35 was performed according to the validated detection method of chemiluminescent sandwich ELISA protocol (Soyeon Y. et al., 2021).
Data analysis of rat plasma GH, glucagon and insulin levels was evaluated by the averaged plasma hormones levels of each group. […] Results are expressed as the mean±SEM.

SSTR3-tGFP-U2OS cells = assay: Cellular internalization of 177Lu radiolabeled compounds; type: cell-based, human; conditions: 4 h
Description: In order to evaluate the cellular internalization of the ^177Lu radiolabeled SEQ ID NO: 6 in comparison to SEQ ID NO: 19 in SSTR3 transfected human cancer cell line to predict the tumor uptake of the radiolabeled compounds, the following example was performed.
Comparative SSTR3 receptor mediated internalization, was determined by incubation of the cultivate cancer cells with the ^177Lu radiolabeled compounds and determination of cellular uptake following washes of the cell culture. To evaluate the internalization as a receptor mediated process, the same experiments were performed in the presence of high concentration of cold SSTR3 ligands.
U2OS cells grow as a monolayer at +37° C. in a humidified atmosphere (5% CO2, 95% air). U2OS cancer cells are adherent to plastic flasks. For experimental use, these cancer cells are detached from the culture flask by a 5-minute treatment with trypsin-versene, in Hanks' medium without calcium or magnesium and neutralized by addition of complete culture medium.
The assay was performed as follows: Transfected human osteosarcoma cells SSTR3-tGFP-U2OS were plated in 6 well plate, 24 hours before the assay to have 80-90% confluency at the day of the assay. 30 minutes before the assay, medium was removed, and cells were washed with tempered Dulbecco's Phosphate Buffered Saline (DPBS, Sigma) and fresh medium (250 μL) is added. For total cellular uptake, 20 nM of the radioligand SEQ ID NO: 6 or SEQ ID NO: 19 were diluted in cell medium (250 μL) added to each well, in triplicate (final radioligand concentration: 10 nM). For non-specific binding, 20 μM (1000 in excess) of cold SEQ ID NO: 4 or cold SEQ ID NO: 6 or SEQ ID NO: 1 and 20 nM of ^177Lu-DOTA-PTR-58 radioligand solution in cell medium (250 μL) were added to each well, in triplicate (final cold peptide concentration: 10 μM; final radioligand concentration: 10 nM). The plates were incubated for 4 hours at +37° C. (air containing 5% CO2, humidified atmosphere). At the end of incubation, the plates were placed on ice to stop any internalization process. The medium, containing the free radioligand fraction, was collected and the cells were washed twice (2×750 μL) with ice-cold DPBS. The medium and the PBS washes were collected in the same vial from each well (final volume […]). The radioactivity of the cell pellets was counted by gamma counter and represents the cellular uptake as percentage of the administrated radioactivity. The radioactivity readouts of the wash-media were used for mass balance.

hSSTR-4 = molecular target: T1, hSSTR-4 (Homo sapiens, UniProt P31391); assay: Radioligand binding, displacement of 125I-Tyr11-SRIF-14; conditions: hSSTR-4
T1 construct: host or cells: Chem-1 (Rat ChemiSCREEN) cells, membrane preparation
Description: (§2) The binding to human cloned receptors SSTR-1, or SSTR-2 or SSTR-3 evaluated in stable and selective transfected CHO (Chinese Hamster Ovary) cells and binding to STSR-4 and SSTR-5 in stable and selective transfected Chem-1 (Rat ChemiSCREEN) cells. […] The binding reactions were filtered, the filters were washed, and the bound radioactivity was counted using a gamma counter.
(§3) The following table depicts the conditions of binding assay to each of the somatostatin receptors used for the evaluations of binding affinities of the tested peptides. All assays were performed by quantitation method of radioligand binding under 25° C. The vehicle was 1% DMSO, the incubation buffer was 25 mM HEPES, pH 7.4, 5 mM MgCl2, 1 mM CaCl2, 0.1% BSA. […] The significance criteria were >50% of max inhibition. […] This specific binding data used for calculation of Bmax values which is the concentration of each of the expressed cloned receptor in its transfected cell system.
(§4) The Results of IC50 values were determined by a non-linear, least squares regression analysis using MathIQ™ (ID Business Solutions Ltd., UK). […] The Hill coefficient (nH), defining the slope of the competitive binding curve, was calculated using MathIQ™.

SSTR5 = SSTR5 (Homo sapiens, UniProt P35346); assay: as above; design: host or cells: Chem-1 (Rat ChemiSCREEN) cells, membrane preparation; conditions: hSSTR-5
Description: as §2, §3, §4

SSTR1 = SSTR1 (Homo sapiens, UniProt P30872); assay: as above; design: host or cells: CHO (Chinese Hamster Ovary) cells, membrane preparation; conditions: hSSTR-1
Description: as §2, §3, §4

SSTR2 = SSTR2 (Homo sapiens, UniProt P30874); assay: as above; design: host or cells: CHO (Chinese Hamster Ovary) cells, membrane preparation; conditions: hSSTR-2
Description: as §2, §3, §4

SSTR3 = SSTR3 (Homo sapiens, UniProt P32745); assay: as above; design: host or cells: CHO (Chinese Hamster Ovary) cells, membrane preparation; conditions: for % displacement of [^125I] Tyr^11-SRIF-14: hSSTR-3
Description: as §2, §3, §4

[3] = female, nude nu/nu Balb/c, mouse, Kidneys % ID/cm^3
[4] = female, nude nu/nu Balb/c, mouse, Tumor % ID/cm^3

SSTR3, sequence (P32745 whole entry): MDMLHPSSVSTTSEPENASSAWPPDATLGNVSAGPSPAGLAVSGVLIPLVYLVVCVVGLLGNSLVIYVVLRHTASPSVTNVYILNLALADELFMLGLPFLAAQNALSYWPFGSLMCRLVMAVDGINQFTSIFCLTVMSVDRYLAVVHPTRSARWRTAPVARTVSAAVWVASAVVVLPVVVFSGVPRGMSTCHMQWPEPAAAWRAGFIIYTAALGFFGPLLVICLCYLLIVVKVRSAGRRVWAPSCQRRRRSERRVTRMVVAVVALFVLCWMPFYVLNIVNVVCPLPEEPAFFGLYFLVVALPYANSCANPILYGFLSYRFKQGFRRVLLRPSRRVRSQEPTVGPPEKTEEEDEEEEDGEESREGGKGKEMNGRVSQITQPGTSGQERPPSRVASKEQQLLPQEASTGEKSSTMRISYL
T1 sequence (P31391 whole entry): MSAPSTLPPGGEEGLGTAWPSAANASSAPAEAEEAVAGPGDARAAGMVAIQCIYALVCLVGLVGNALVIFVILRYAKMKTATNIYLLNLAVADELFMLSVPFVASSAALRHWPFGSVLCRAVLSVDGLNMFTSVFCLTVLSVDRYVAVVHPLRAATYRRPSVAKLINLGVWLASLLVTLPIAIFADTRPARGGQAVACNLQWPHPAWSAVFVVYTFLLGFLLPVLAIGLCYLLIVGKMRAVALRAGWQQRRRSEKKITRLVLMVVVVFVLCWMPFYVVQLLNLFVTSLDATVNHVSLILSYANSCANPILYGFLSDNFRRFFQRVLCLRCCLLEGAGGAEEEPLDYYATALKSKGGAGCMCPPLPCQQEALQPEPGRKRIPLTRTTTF
SSTR2, sequence (P30874 whole entry): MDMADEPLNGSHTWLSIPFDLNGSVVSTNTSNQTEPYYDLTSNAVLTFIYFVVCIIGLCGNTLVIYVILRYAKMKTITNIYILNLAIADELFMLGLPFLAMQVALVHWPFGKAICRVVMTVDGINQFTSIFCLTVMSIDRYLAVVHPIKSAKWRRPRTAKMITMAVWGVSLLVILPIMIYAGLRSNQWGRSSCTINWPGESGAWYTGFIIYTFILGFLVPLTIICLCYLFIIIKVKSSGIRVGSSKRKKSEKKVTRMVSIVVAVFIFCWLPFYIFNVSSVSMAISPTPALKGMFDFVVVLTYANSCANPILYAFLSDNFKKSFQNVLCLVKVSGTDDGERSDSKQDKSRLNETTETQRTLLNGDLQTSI
SSTR1, sequence (P30872 whole entry): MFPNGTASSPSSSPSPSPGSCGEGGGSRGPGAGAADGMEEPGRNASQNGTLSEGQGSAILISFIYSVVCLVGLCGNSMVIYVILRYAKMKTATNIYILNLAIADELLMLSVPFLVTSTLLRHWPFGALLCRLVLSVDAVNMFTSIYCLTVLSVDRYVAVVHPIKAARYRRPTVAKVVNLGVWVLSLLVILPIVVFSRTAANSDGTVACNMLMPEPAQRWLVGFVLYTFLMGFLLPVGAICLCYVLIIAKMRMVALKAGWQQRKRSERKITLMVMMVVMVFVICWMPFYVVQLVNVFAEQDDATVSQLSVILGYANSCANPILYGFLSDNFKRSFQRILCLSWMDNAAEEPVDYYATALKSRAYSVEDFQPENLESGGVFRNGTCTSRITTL
SSTR5, sequence (P35346 whole entry): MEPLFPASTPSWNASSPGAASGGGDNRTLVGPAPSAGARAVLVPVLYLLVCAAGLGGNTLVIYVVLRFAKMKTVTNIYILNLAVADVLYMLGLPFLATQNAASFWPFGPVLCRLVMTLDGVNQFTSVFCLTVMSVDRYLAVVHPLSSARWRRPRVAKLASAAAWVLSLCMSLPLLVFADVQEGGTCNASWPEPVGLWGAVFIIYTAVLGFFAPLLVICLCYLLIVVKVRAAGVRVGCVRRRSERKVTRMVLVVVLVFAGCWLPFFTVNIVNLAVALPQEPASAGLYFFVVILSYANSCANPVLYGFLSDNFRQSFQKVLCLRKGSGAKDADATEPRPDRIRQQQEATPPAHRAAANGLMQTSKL

C[C@@H](O)[C@@H]1NC(=O)[C@H](CCCCN)NC(=O)[C@@H](Cc2c[nH]c3ccccc23)NC(=O)[C@H](Cc2ccccc2)NC(=O)[C@@H](NC(=O)[C@H](CCCNC(=N)N)NC(=O)[C@@H](Cc2ccccc2)NC(=O)CN2CCN(CC(=O)O)CCN(CC(=O)O)CCN(CC(=O)O)CC2)CSSCCN(CC(N)=O)C(=O)[C@H](Cc2ccccc2)NC1=O [^68Ga -SEQ ID NO: 4, metal not drawn] ({DOTA}-[dF]RCF[dW]KTF[N(2-mercaptoethyl)Gly]-NH2; disulfide 3-9)
tissue uptake per volume at 2.5 h (in vivo; [3]): 6 %ID/mL
tissue uptake per volume at 4 h (in vivo; [3]): 6.6 %ID/mL
tissue uptake per volume at 2.5 h (in vivo; [4]): 9.6 %ID/mL
tissue uptake per volume at 4 h (in vivo; [4]): 12.3 %ID/mL
tissue uptake per volume at 2.5 h (in vivo; nude nu/nu, rat, Kidneys % ID/cm^3): 3.2 %ID/mL
tissue uptake per volume at 2.5 h (in vivo; nude nu/nu, rat, Tumor % ID/cm^3): 4.7 %ID/mL
tumor uptake above the kidneys (tumor/kidneys) [1]: approximately 50%
Kidneys SUV ([1]; iv): 7.6
Tumor SUV ([1]; iv): 11.0
safety evaluations ([2]; human, in vivo): no abnormal toxicity signs
uptake in off-target organs ([2]; human, in vivo): no uptake in off-target organs
elimination of the tracer ([2]; human, in vivo, iv): rapid elimination of the tracer was observed from the blood to the kidneys
tumor uptake (radioactive foci) ([2]; patient with DSRCT, FIG. 9): several radioactive foci were detected in the lung, neck and pelvic regions

C[C@@H](O)[C@@H]1NC(=O)[C@H](CCCCN)NC(=O)[C@@H](Cc2c[nH]c3ccccc23)NC(=O)[C@H](Cc2ccccc2)NC(=O)[C@@H](NC(=O)[C@H](N)Cc2ccccc2)CSSC[C@@H](C(=O)N[C@H](CO)[C@@H](C)O)NC1=O [octreotide, reference compound]
effect on insulin release (insulin release): exhibits anti-secretagogue effect of pancreatic release of insulin

^177Lu -SEQ ID NO: 6 ({DOTA}-[dF]RCF[dW]KTF[N(2-mercaptoethyl)Gly]-NH2; disulfide 3-9; also: 177Lu complex of DOTA)
% Total cellular uptake (SSTR3-tGFP-U2OS cells; 177Lu radiolabeled, 10 nM, no blocking): 15.5 ± 0.28% and 22.1 ± 0.5%
% Total cellular uptake (SSTR3-tGFP-U2OS cells; 177Lu radiolabeled, 10 nM, no blocking, listed as 177Lu radiolabeled SEQ ID NO. 6): 22%
% Total cellular uptake (SSTR3-tGFP-U2OS cells; + SEQ ID NO: 4 (cold 69/71Ga for blocking)): 0.9 ± 0.02%
% Total cellular uptake (SSTR3-tGFP-U2OS cells; + SEQ ID NO: 6 (cold 175Lu for blocking)): 0.6 ± 0.02%

gallium labelled DOTA-GABA-D-Phe^1-Arg^2-Cys^3-Phe^4-D-Trp^5-Lys^6-Thr^7-Phe^8-NTEG^9-NH2 (cyclo 3-9) ({DOTA-GABA}-[dF]RCF[dW]KTF[N(2-mercaptoethyl)Gly]-NH2; disulfide 3-9; also: gallium complex of DOTA) [SEQ ID NO: 8]
% displacement of [^125I] Tyr^11-SRIF-14 (hSSTR-4; at 1 nM (in brackets)): 5%
% displacement of [^125I] Tyr^11-SRIF-14 (hSSTR-4; at 10 nM): 4%
% displacement of [^125I] Tyr^11-SRIF-14 (SSTR5; at 1 nM (in brackets)): 0%
% displacement of [^125I] Tyr^11-SRIF-14 (SSTR5; at 10 nM): 15%
% displacement of [^125I] Tyr^11-SRIF-14 (SSTR1; at 1 nM (in brackets)): 0%
% displacement of [^125I] Tyr^11-SRIF-14 (SSTR1; at 10 nM): 10%
% displacement of [^125I] Tyr^11-SRIF-14 (SSTR2; at 1 nM (in brackets)): 0%
% displacement of [^125I] Tyr^11-SRIF-14 (SSTR2; at 10 nM): 10%
affinity and selectivity to SSTR3 (in words) (SSTR3; binding data): maintains the same affinity and selectivity to SSTR3 as SEQ ID NO. 1, and SEQ ID NO. 3-7
% displacement of [^125I] Tyr^11-SRIF-14 (SSTR3; at 1 nM (in brackets)): 61%
% displacement of [^125I] Tyr^11-SRIF-14 (SSTR3; at 10 nM): 88%
